Source: article doi:10.1101/2024.06.27.600884

What was measured:
Assay in all cases: EMSA
Myc-TRF2ΔBΔHinge (RRL) = Myc-TRF2ΔBΔHinge (RRL) (UniProt Q15554 87-287+484-542, internal_change)
TRF2ΔB-F59A = TRF2ΔB-F59A (UniProt Q15554 87-542, F101A)
Myc-TRF2ΔBΔTRFH (RRL) = Myc-TRF2ΔBΔTRFH (RRL) (UniProt Q15554 288-542)
TRF2ΔB = TRF2ΔB (UniProt Q15554 87-542)
TRF2ΔBΔTRFH = TRF2ΔBΔTRFH (UniProt Q15554 288-542)
Myc-TRF2ΔB (RRL) = Myc-TRF2ΔB (RRL) (UniProt Q15554 87-542)
TRF2ΔBΔHinge = TRF2ΔBΔHinge (UniProt Q15554 87-287+484-542, internal_change)

Measured: binding result

B1: 4-repeat telomeric probe (dsDNA)
DNA 1: GTACCCGGGGATCGTCGACTCTAGAGGGGCCCTAACCCTAACCCTAACCCTAACCCGGGCTCGAATTCGATCCTCTAGAGTCGACCTGCAGGCATGCAAGCU
DNA 2: AGCTTGCATGCCTGCAGGTCGACTCTAGAGGATCGAATTCGAGCCCGGGTTAGGGTTAGGGTTAGGGTTAGGGCCCCTCTAGAGTCGACGATCCCCGGGUAC
modifications: Cy5.5-dUTP incorporated by Klenow fill-in (U near both 3' ends)
binds: all assays above
